4 molecules from US20260209346A1 (LTZ THERAPEUTICS, published 2026) can be followed below.

Broadly, the EC50 is the concentration at which the effect is half-maximal. Read a low EC50 as an effect from little substance. In general, Kd refers to a measure of binding affinity in units of concentration. In general, IC50 refers to the midpoint of a concentration-inhibition curve. What is called EC50 (read off the curve) is the concentration needed to bring the measured effect to its halfway point. A word on the koff: it is the rate constant with which the complex falls apart. What is called kon is a measure of how fast the partners come together.

Assay [1] has as its target CD79b endogenously expressed on the cell surface (malignant B cell lines, normal B cells in PBMC, CLL patients' B lymphocytes) (human) (UniProt P40259). Briefly: flow cytometry quadrant plot, untransfected NALM6 cells; Anti-CD79b-PE against Anti-IgM-APC. (In general: In flow cytometry, cells or beads pass a laser one at a time.)
For assay [2] the target is unchanged. Briefly: flow cytometry on BJAB cells; anti-human IgG1-PE; MFI (PE); table under the graph; fit of a flat control curve.
For assay [3] the target is unchanged. Briefly: flow cytometry on SU-DHL-4 cells; anti-human IgG1-PE; MFI (PE); table under the graph; fit of a flat control curve.
The target is the same in assay [4]. Briefly: flow cytometry on Nalm-6 cells; anti-human IgG1-PE; MFI (PE); table under the graph; fit of a flat control curve.
For assay [5] the target is unchanged. Briefly: flow cytometry on PBMC of Donor 2890, B cells marked with CD19-BV421; anti-human IgG1-PE; MFI (PE); table under the graph; fit of a flat control curve.
For assay [6] the target is unchanged. Briefly: flow cytometry on Ramos cells; anti-human IgG1-PE; MFI (PE); table under the graph; fit of a flat control curve.
For assay [7], the target named is T1, human CD79b recombinant protein (human, UniProt P40259 29-159).
T1 construct: also called human CD79b ECD antigen; recombinant human CD79b ECD
T1 sequence: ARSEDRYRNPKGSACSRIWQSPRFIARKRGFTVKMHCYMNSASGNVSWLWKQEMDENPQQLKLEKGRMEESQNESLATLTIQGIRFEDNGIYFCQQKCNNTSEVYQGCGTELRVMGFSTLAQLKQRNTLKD
Briefly: BLI; antibody at 10 ug/ml captured on anti-human IgG Fc probes, hCD79b in solution; row for 9.14 nM hCD79b. A general note: BLI is a label-free optical method that tracks binding on a fibre tip over time.

In assay [8] the target is T2, CD79b endogenously expressed on the cell surface (malignant B cell lines, normal B cells in PBMC, CLL … (human, UniProt P40259 29-229)).
T2 construct: whole, on cells; On cells CD79b stands in the B-cell receptor complex with CD79a and surface Ig; also called cell surface CD79b; endogenous CD79b
T2 sequence (looked up): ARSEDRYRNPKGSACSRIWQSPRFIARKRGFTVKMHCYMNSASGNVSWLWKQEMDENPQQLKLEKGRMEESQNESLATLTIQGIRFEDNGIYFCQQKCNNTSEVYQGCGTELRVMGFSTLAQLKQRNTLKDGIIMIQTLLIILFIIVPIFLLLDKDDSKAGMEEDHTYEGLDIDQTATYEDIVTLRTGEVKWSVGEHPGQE
As to the kind of experiment: flow cytometry on SU-DHL-4 cells; anti-human IgG1-PE; MFI (PE); table under the graph. The protocol:
(§1) The binding affinities of anti-CD79b antibodies to malignant B cell lines were tested. […] The cells were then incubated with 100 μl anti-human IgG1-PE (Invitrogen, cat: 12-4998-82), 1:1000 dilution, for 30 min on ice, washed with 200 ul PBS for three times before flow cytometry analysis.

The target in assay [9] is T1, human CD79b recombinant protein. Briefly: ELISA, coated human CD79b recombinant protein. The protocol:
(§2) Binding affinities of anti-CD79b antibodies to human and cynomolgus CD79b recombinant proteins were tested by ELISA. 1 ug/ml (in PBS buffer) of human or cynomolgus CD79b recombinant proteins were coated on an ELISA plate overnight. ELISA plates were washed and blocked with blocking buffer (PBS+1% BSA) followed by incubation with serially diluted anti-CD79b primary antibodies. Anti-CD79b antibody binding was quantified using an anti-human IgG HRP secondary antibody (Biolegend Catalog #410902) and HRP substrate.
Background: ELISA stands for enzyme-linked immunosorbent assay.

The target of assay [10] is T2, CD79b endogenously expressed on the …. Briefly: flow cytometry on Ramos cells; anti-human IgG1-PE; MFI (PE); table under the graph. The protocol:
as §1

Assay [11] shares this target. Briefly: flow cytometry on PBMC of Donor 356, B cells marked with CD19-BV421; anti-human IgG1-PE; MFI (PE); table under the graph. The protocol: (§3) The binding affinities of anti-CD79b antibodies to endogenous B cells were tested. […] The cells were then incubated with […] mixture of anti-human IgG1-PE (Invitrogen, Cat #: 12-4998-82), 1:1000 dilution; CD19-BV421 (Biolegend, Cat #:302230, 1:400 dilution) for 30 min on ice, and washed with 200 ul PBS for three times before flow cytometry analysis.

Assay [12] has the same target. As to the kind of experiment: flow cytometry on PBMC of Donor 2890, B cells marked with CD19-BV421; anti-human IgG1-PE; MFI (PE); table under the graph. The procedure:
as §3

For assay [13] the target is unchanged. As to the kind of experiment: flow cytometry on PBMC of Donor 2235, B cells marked with CD19-BV421; anti-human IgG1-PE; MFI (PE); table under the graph. The procedure:
as §3

For assay [14] the target is unchanged. As to the kind of experiment: flow cytometry on Daudi cells; anti-human IgG1-PE; MFI (PE); table under the graph. The procedure:
as §1

Assay [15] has the same target. Briefly: flow cytometry on Nalm-6 cells; anti-human IgG1-PE; MFI (PE); table under the graph. The protocol:
as §1

Assay [16] has the same target. As to the kind of experiment: flow cytometry on PBMC of Donor 889, B cells marked with CD19-BV421; anti-human IgG1-PE; MFI (PE); table under the graph. The procedure: as §3
Assay [17] has the same target. As to the kind of experiment: flow cytometry on BJAB cells; anti-human IgG1-PE; MFI (PE); table under the graph. The protocol: as §1
For assay [18] the target is unchanged. As to the kind of experiment: flow cytometry on PBMC of CLL Donor 0255 (B lymphocytes); PE goat anti-human IgG Fc; MFI PE. The protocol: To determine the binding affinities of the anti-CD79b antibodies to cell surface CD79b on Chronic Lymphocytic Leukemia (CLL) patient's B lymphocytes, a cell-based binding assay was conducted. […] CLL patient PBMCs were purchased from the company Bioscience. […] Specifically, 2.5×10⁴ PBMC cells in 50 μl FACS buffer (1×PBS+2% BSA+2 mM EDTA) were seeded in each well of a V bottom 96-well plate. […] The mixture was incubated on ice for 30 minutes, and then washed twice with FACS buffer. The cells were re-suspended in 100 μl FACS buffer containing PE conjugated goat anti-human IgG Fc (1:1000) and anti-human CD19 (BV421), and incubated for 30 minutes on ice in darkness. After washing twice with FACS buffer, the cells were re-suspended in 100 μl of FACS buffer and analyzed with a Cytek cytometer.

The target in assay [19] is T1, human CD79b recombinant protein. As to the kind of experiment: BLI, antibody captured on anti-human IgG Fc probes, human CD79b in solution, 1:1 model. The procedure:
(§4) Binding affinities of anti-CD79b antibodies to human CD79b recombinant proteins were tested by BLI. 10 ug/ml of anti-CD79b antibodies were captured by anti-human IgG Fc probes (Gator Bio Catalog #160024). […] Absolute kD was determined by applying a 1:1 binding model (Global Rmax unlinked).

The target is the same in assay [20]. Briefly: ELISA on recombinant human CD79b ECD; A 450nm.
For assay [21], the target named is T3, cynomolgus CD79b recombinant protein (cynomolgus).
T3 chain: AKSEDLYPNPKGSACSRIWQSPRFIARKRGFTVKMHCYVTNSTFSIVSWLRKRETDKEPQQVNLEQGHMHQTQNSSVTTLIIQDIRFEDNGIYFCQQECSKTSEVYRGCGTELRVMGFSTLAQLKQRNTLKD
Briefly: ELISA, coated cynomolgus CD79b recombinant protein. The protocol: as §2

Assay [22] concerns the target T2, CD79b endogenously expressed on the …. Briefly: flow cytometry on a cell line expressing endogenous CD79b (not named on the sheet or in the text); MFI (PE).
The target in assay [23] is T1, human CD79b recombinant protein. Briefly: BLI; antibody at 10 ug/ml captured on anti-human IgG Fc probes, hCD79b in solution; same value printed in the rows for 18.3 and 9.14 nM hCD79b. The protocol:
as §4

With Isotype (antibody), the Q3 (percent of cells Anti-CD79b-PE positive, Anti-IgM-APC negative) in assay [1] came out at 1.16.
Regarding IgG1 control (antibody), the EC50 in [2] amounted to 0.04 nM; in assay [3] it was 0.17 nM; in assay [4], 8.17 nM; in assay [5], 0.163 nM; in assay [6] it was 0.01 nM.

B1: polatuzumab (antibody, V domains shown)
VH: EVQLVESGGGLVQPGGSLRLSCAASGYTFSSYWIEWVRQAPGKGLEWIGEILPGGGDTNYNEIFKGRATFSADTSKNTAYLQMNSLRAEDTAVYYCTRRVPIRLDYWGQGTLVTVSS
VL: DIQLTQSPSSLSASVGDRVTITCKASQSVDYEGDSFLNWYQQKPGKAPKLLIYAASNLESGVPSRFSGSGSGTDFTLTISSLQPEDFATYYCQQSNEDPLTFGQGTKVEIKR
Take B1: the Kd in assay [7] is 0.417 nM. The EC50 in assay [8] is 1.44 nM; in [10] it was 1.78 nM; in assay [11], 0.238 nM; in [12] it was 1.56 nM; in [13], 1.98 nM; in [14], 2.24 nM. Further, the EC50 worked out at 7.85 nM in [15], 0.153 nM in [16] and 1.26 nM in assay [17]. Also, the IC50 in assay [9] was found to be 0.19 nM. Moreover, the “EC50 (read off the curve)” value in assay [18] is around 0.9 nM.

B2: ch23D8 (antibody, human IgG1, kappa, V domains shown)
VH: QSLEESGGGLVTPGGTLTLTCTVSGLSLSSNAINWVRQAPGKGLEWIGMIYSGGRIEYASWAKGRFTISKTSTTVDLKITSPTTEDTATYFCAKGMSPSAHSSDIWGPGTLVTVSA
VL: AYDMTQTPASVEVAVGGTVTIKCQASQSISDNLSWYQQKPGQPPKLLIYDASDLASGVPSRFSGSGSGTEFTLTISDLEPADAATYYCQQDWISSNVDNTFGGGTEVVVKR
notes: Rabbit/human chimeric IgG1 kappa; also called chimeric 23D8
Turning to B2, the EC50 in assay [8] was 0.93 nM; in assay [10], 1.4 nM; in assay [11], 0.225 nM; in [12] it was 1.05 nM; in assay [13], 0.921 nM; in assay [14], 1.08 nM. The EC50 in assay [15] came out at 4.58 nM; in assay [16], 0.15 nM; in [17], 1.06 nM. For the same molecule, the Kd in assay [19] was determined as 0.32 nM. The IC50 in assay [9] worked out at 0.33 nM; in assay [21], 0.57 nM. Besides, the “EC50 (read off the curve)” value in [20] is around 0.1 nM; in [22], around 0.3 nM; in assay [18], around 0.9 nM. In [23], the koff worked out at 7.85e-05 s⁻¹. In addition, the kon in assay [23] was 245000 M⁻¹ s⁻¹.
